Measurements taken from paper PMC7835958 (2021).

Biological target: T1, LEDGF/p75 IBD (Homo sapiens, UniProt O75475)
T1 chain: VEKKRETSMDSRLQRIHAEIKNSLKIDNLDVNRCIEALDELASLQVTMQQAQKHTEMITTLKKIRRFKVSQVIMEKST
Test: NMR

GTNLRRFRAVFGESGGGGGSGEDEQFLGFGSDEEVRVR [MLL 123-160]
Kd: 64 µM
